Measurements published in publication PMC5546597.

What was measured:
[1] = molecular target: MTCL1 CC1 fragment purified from E. coli (mouse); experiment: cross-linking; purified CC1 fragment (0.52 mg/ml) in PBS, 30 min at 25°C with DST (0.1, 0.3 and 0.9 mg/ml); stopped with 50 mM Tris-HCl pH 7.5
[2] = molecular target: MTCL1 CC1 fragment purified from E. coli (mouse); experiment: SDS-PAGE without heat pretreatment; purified tag-free CC1 fragment in SDS sample buffer with 2% SDS, with or without heat treatment (100°C, 10 min); CBB staining

Substance: MTCL1 CC1 fragment purified from E. coli (domain or fragment)
- stoichiometry N [1]: 2
- stoichiometry N [2]: 2
